This note sets out measurements from doi:10.1101/2025.05.15.654345.

This test deals with human IFITM3 (untagged; interferon-induced transmembrane protein 3) (UniProt Q01628). As to the kind of experiment: co-immunoprecipitation (anti-HA IP, anti-IFITM3 immunoblot, band ratio). The note with it: HEK293T co-transfected with pCMV-IFITM3 (0.50 μg) and pBJ-97ZA Nef-HA WT or mutant (0.25 μg); parent: 100.
UniProt Q01628, sequence (Q01628 whole entry): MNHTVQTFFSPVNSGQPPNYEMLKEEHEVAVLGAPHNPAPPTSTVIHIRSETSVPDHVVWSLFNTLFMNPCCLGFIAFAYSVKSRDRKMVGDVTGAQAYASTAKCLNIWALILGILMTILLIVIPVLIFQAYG

For “97ZA013 Nef-HA (HIV-1 clade C primary isolate), wild type G2A”, the percent of parent (% (IFITM3/HA ratio, WT = 100)) amounted to 1.

For “97ZA013 Nef-HA (HIV-1 clade C primary isolate), wild type L164A; L165A”, the percent of parent (% (IFITM3/HA ratio, WT = 100)) is 87.

With “97ZA013 Nef-HA (HIV-1 clade C primary isolate), wild type N163T; C164S”, the percent of parent (% (IFITM3/HA ratio, WT = 100)) worked out at 217.

As to “97ZA013 Nef-HA (HIV-1 clade C primary isolate), wild type R17A; R19A; R21A; R22A”, the percent of parent (% (IFITM3/HA ratio, WT = 100)) is 16.

For “97ZA013 Nef-HA (HIV-1 clade C primary isolate), wild type S152D; E153K”, the percent of parent (% (IFITM3/HA ratio, WT = 100)) worked out at 42.

In the case of “97ZA013 Nef-HA (HIV-1 clade C primary isolate), wild type M20A”, the percent of parent (% (IFITM3/HA ratio, WT = 100)) was 124.

On to “97ZA013 Nef-HA (HIV-1 clade C primary isolate), wild type M169V; Q171L”, for which the percent of parent (% (IFITM3/HA ratio, WT = 100)) was determined as 244.

For “97ZA013 Nef-HA (HIV-1 clade C primary isolate), wild type E153K”, the percent of parent (% (IFITM3/HA ratio, WT = 100)) came out at 73.

With “97ZA013 Nef-HA (HIV-1 clade C primary isolate), wild type R192F; R193H”, the percent of parent (% (IFITM3/HA ratio, WT = 100)) turned out to be 188.
